Patent publication US20240034813A1 (Janssen / Centocor, published 2024)

Tests used:
[1] = molecular target: T1, recombinant human EGFR/ErbB1/HER1 with C-terminal His tag, Cy5-labeled (human, UniProt P00533 25-645, Cy5 label (reacted with Cy5 Mono NHS Ester; sites not stated)); experiment: competitive TR-FRET (Eu-amivantamab/Cy5-EGFR), EC50 ratio vs Reference Material; Ex. 11 drug product, 3 months at 25 C
T1 construct: Commercial protein; also called Cy5-EGFR; Cy5-labeled EGFR antigen; not shown: C-terminal His tag
Source text: (§1) In this procedure, varying concentrations of unlabeled bispecific EGFR-cMet antibody sample compete with donor fluorophore (Europium (Eu) chelate) labeled bispecific EGFR-cMet antibody for binding to an acceptor fluorophore (Cy5)-labeled EGFR antigen. Excitation of the donor fluorophore results in a transfer of energy to the bound acceptor fluorophore (FRET process). The resultant FRET is detected by emission of light at 665 nm using a microplate reader capable of measuring time-resolved fluorescence. Sample dose response curves are compared to the RM.
(§2) EGFR Binding Materials and Methods. Certified commercial EGFR, a recombinant human EGFR/ErbB1/HER1 with C-terminal His tag is reacted with certified commercial Cy5 Mono NHS Ester to produce Cy5-labeled EGFR. Validated bispecific EGFR-cMet antibody is reacted with certified commercial Europium (Eu) chelate to produce Eu-labeled bispecific EGFR-cMet antibody. […] Fluorescence is then measured by spectrophotometry at 665 nm, plotted against antibody concentration and analyzed by a four-parameter logistic model. The antibody concentration required to obtain half of the maximum fluorescence response (EC50) is determined for RM, assay control and samples. The potencies of assay control and samples are calculated based on the ratio of the sample (or control) and RM EC50 values and reported as a percentage activity relative to the RM.

[2] = molecular target: T2, recombinant cMet/HGFR with c-terminal His-tag, Cy5-labeled (UniProt P08581 25-932, limits assumed, Cy5 label (reacted with Cy5 Mono NHS Ester; sites not stated)); experiment: competitive TR-FRET (Eu-amivantamab/Cy5-c-MET), EC50 ratio vs Reference Material; Ex. 11 drug product, 0 months, 25 C table
T2 construct: Commercial protein; also called Cy5-c-MET; Cy5-labeled c-MET antigen; not shown: C-terminal His-tag
Source text: as §1, with “(Cy5)-labeled c-MET” for “(Cy5)-labeled EGFR”, “the Reference Material (RM).” for “the RM.”
as §2, with “c-MET Binding” for “EGFR Binding”, “commercial cMet,” for “commercial EGFR,”, “recombinant cMet/HGFR” for “recombinant human EGFR/ErbB1/HER1”, “with c-terminal His-tag” for “with C-terminal His tag”, “Cy5-labeled c-MET.” for “Cy5-labeled EGFR.”, “produce Eu labeled” for “produce Eu-labeled”

[3] = molecular target: T2, recombinant cMet/HGFR with c-terminal …; experiment: competitive TR-FRET (Eu-amivantamab/Cy5-c-MET), EC50 ratio vs Reference Material; Ex. 2 Formulation 2 (50 mM histidine), T0, 40 C table
Source text: as §1, with “(Cy5)-labeled c-MET” for “(Cy5)-labeled EGFR”, “the Reference Material (RM).” for “the RM.”
as §2, with “c-MET Binding” for “EGFR Binding”, “commercial cMet,” for “commercial EGFR,”, “recombinant cMet/HGFR” for “recombinant human EGFR/ErbB1/HER1”, “with c-terminal His-tag” for “with C-terminal His tag”, “Cy5-labeled c-MET.” for “Cy5-labeled EGFR.”, “produce Eu labeled” for “produce Eu-labeled”

[4] = molecular target: T1, recombinant human EGFR/ErbB1/HER1 with …; experiment: competitive TR-FRET (Eu-amivantamab/Cy5-EGFR), EC50 ratio vs Reference Material; Ex. 2 Formulation 2 (50 mM histidine), 1 month at 40 C
Source text: as §1, §2

[5] = molecular target: T1, recombinant human EGFR/ErbB1/HER1 with …; experiment: competitive TR-FRET (Eu-amivantamab/Cy5-EGFR), EC50 ratio vs Reference Material; Ex. 2 Formulation 2 (50 mM histidine), 3 months at 25 C
Source text: as §1, §2

[6] = molecular target: T2, recombinant cMet/HGFR with c-terminal …; experiment: competitive TR-FRET (Eu-amivantamab/Cy5-c-MET), EC50 ratio vs Reference Material; Ex. 12 drug product with rHuPH20, 0 months, 40 C table
Source text: as §1, with “(Cy5)-labeled c-MET” for “(Cy5)-labeled EGFR”, “the Reference Material (RM).” for “the RM.”
as §2, with “c-MET Binding” for “EGFR Binding”, “commercial cMet,” for “commercial EGFR,”, “recombinant cMet/HGFR” for “recombinant human EGFR/ErbB1/HER1”, “with c-terminal His-tag” for “with C-terminal His tag”, “Cy5-labeled c-MET.” for “Cy5-labeled EGFR.”, “produce Eu labeled” for “produce Eu-labeled”

[7] = molecular target: T2, recombinant cMet/HGFR with c-terminal …; experiment: competitive TR-FRET (Eu-amivantamab/Cy5-c-MET), EC50 ratio vs Reference Material; Ex. 12 drug product with rHuPH20, 6 months at 5 C
Source text: as §1, with “(Cy5)-labeled c-MET” for “(Cy5)-labeled EGFR”, “the Reference Material (RM).” for “the RM.”
as §2, with “c-MET Binding” for “EGFR Binding”, “commercial cMet,” for “commercial EGFR,”, “recombinant cMet/HGFR” for “recombinant human EGFR/ErbB1/HER1”, “with c-terminal His-tag” for “with C-terminal His tag”, “Cy5-labeled c-MET.” for “Cy5-labeled EGFR.”, “produce Eu labeled” for “produce Eu-labeled”

[8] = molecular target: T1, recombinant human EGFR/ErbB1/HER1 with …; experiment: competitive TR-FRET (Eu-amivantamab/Cy5-EGFR), EC50 ratio vs Reference Material; Ex. 12 drug product with rHuPH20, 12 months at 5 C
Source text: as §1, §2

- EGFR Binding activity relative to Reference Material (%) [1]: 71%
- cMET Binding activity relative to Reference Material (%) [2]: 85%
- cMET Binding % activity relative to RM [3]: 102%
- EGFR Binding % activity relative to RM [4]: 68%
- EGFR Binding % activity relative to RM [5]: 77%
- cMET Binding activity relative to Reference Material (%) [6]: 91%
- cMET Binding activity relative to Reference Material (%) [7]: 102%
- EGFR Binding activity relative to Reference Material (%) [8]: 94%
B1: amivantamab (bispecific antibody, human IgG1, kappa)
heavy 1: not shown
light 1: not shown
heavy 2: not shown
light 2: DIQMTQSPSSVSASVGDRVTITCRASQGISNWLAWFQHKPGKAPKLLIYAASSLLSGVPSRFSGSGSGTDFTLTISSLQPEDFATYYCQQANSFPITFGQGTRLEIKRTVAAPSVFIFPPSDEQLKSGTASVVCLLNNFYPREAKVQWKVDNALQSGNSQESVTEQDSKDSTYSLSSTLTLSKADYEKHKVYACEVTHQGLSSPVTKSFNRGEC
notes: The samples tested were high concentration (160 mg/mL) formulations, fresh or stored or stressed; also called JNJ-61186372; bispecific EGFR-cMet antibody
